Source: patent publication US20150329626A1 (Eli Lilly, published 2015)

Legend:
[1] = target: human VEGFR2 on cells (ECFC, HMVEC-d) (human, UniProt P35968 20-1356); test: cell-based or functional assay
[2] = target: T1, human Ang2 (human, UniProt O15123 19-496); test: cell-based or functional assay
T1 sequence: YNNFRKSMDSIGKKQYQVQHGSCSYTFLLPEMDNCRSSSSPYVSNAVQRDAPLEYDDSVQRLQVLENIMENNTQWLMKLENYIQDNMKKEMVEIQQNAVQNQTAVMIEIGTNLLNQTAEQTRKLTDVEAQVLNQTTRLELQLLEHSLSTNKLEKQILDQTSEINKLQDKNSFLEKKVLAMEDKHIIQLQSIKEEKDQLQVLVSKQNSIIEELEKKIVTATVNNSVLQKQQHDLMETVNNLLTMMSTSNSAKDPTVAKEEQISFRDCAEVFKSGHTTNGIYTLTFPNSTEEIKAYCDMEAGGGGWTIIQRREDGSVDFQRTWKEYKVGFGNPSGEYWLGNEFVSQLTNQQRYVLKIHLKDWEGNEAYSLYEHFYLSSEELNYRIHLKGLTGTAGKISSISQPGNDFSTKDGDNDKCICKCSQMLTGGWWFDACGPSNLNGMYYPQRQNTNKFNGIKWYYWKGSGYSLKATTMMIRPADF

[3] = target: T2, mouse Ang2 (mouse, UniProt O35608 19-496, limits assumed); test: Biacore SPR, 37 C, n = 3, compound captured on Protein A
T2 sequence (looked up): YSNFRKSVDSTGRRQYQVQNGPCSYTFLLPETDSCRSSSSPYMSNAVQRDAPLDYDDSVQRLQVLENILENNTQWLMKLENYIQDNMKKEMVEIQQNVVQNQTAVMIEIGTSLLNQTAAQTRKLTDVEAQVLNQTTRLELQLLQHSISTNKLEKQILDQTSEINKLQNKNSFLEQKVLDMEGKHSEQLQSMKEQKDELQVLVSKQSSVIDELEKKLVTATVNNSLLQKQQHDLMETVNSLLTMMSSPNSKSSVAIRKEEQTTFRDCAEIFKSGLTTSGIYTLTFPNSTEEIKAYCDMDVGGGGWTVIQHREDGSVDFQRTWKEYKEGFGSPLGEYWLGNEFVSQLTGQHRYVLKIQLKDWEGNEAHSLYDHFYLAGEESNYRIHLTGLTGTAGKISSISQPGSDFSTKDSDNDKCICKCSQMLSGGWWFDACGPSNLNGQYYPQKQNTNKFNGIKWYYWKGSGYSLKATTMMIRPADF

[4] = target: T3, rabbit Ang2 (rabbit, UniProt G1T9B3 19-496); test: as above
T3 sequence: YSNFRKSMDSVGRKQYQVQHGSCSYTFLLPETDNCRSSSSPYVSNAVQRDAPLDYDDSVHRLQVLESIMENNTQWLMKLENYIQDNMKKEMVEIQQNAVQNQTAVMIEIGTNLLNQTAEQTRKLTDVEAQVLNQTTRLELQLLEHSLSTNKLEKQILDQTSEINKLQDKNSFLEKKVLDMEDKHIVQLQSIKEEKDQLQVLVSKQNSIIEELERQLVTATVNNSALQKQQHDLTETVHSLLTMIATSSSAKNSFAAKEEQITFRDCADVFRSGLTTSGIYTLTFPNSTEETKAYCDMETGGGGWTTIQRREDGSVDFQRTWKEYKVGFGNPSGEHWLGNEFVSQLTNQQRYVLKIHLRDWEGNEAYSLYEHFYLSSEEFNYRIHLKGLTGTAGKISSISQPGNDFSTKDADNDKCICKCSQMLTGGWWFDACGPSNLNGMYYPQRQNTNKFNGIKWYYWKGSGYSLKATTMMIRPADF

[5] = target: T4, dog Ang2 (dog, UniProt A0A8J8 19-495, limits assumed); test: as above
T4 sequence (looked up): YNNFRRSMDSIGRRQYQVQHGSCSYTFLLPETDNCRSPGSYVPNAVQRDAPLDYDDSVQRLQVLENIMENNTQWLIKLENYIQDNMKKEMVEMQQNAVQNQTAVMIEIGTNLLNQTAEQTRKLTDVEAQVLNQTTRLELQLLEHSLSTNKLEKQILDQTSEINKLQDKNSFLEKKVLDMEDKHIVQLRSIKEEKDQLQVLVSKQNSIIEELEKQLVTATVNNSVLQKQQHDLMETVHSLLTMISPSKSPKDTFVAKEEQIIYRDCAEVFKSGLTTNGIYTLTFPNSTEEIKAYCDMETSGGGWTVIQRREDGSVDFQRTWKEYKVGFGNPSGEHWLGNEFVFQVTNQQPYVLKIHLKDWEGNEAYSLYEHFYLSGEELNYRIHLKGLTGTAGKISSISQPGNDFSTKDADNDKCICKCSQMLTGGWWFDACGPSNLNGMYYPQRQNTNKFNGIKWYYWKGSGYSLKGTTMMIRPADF

[6] = target: T1, human Ang2; test: as above
[7] = target: T5, cyno Ang2 (cynomolgus monkey, UniProt A0A2K5VNX6 19-496); test: as above
T5 construct: also called cynomolgus monkey Ang2
T5 sequence: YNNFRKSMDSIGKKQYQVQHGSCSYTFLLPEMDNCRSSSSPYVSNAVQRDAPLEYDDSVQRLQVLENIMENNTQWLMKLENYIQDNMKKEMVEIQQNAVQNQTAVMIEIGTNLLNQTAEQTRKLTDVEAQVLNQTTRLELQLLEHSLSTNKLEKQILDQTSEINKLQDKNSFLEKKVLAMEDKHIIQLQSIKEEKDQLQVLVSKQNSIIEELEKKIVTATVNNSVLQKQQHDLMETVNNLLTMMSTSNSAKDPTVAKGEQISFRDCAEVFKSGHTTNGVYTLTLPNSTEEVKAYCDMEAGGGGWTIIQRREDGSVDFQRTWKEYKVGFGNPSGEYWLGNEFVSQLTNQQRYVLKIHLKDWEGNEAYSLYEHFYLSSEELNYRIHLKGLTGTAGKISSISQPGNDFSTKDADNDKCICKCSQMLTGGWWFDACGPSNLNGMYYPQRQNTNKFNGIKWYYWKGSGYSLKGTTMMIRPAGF

[8] = target: T1, human Ang2; test: Biacore SPR, 25 C, compound captured on Protein A, Ang2 as analyte
[9] = target: T6, human VEGFR2 extracellular domain (human, UniProt P35968 20-764); test: Biacore SPR, 25 C, compound captured on Protein A, VEGFR2-ECD as analyte
T6 construct: also called hVEGFR2-ECD; human VEGFR2-ECD

[10] = target: T6, human VEGFR2 extracellular domain; test: Biacore SPR, 37 C, n = 3, compound captured on Protein A, VEGFR2-ECD as analyte
[11] = target: T7, cyno VEGFR2 extracellular domain (cynomolgus monkey, UniProt A0A2K5VE63 20-764); test: as above
T7 construct: extracellular domain; also called cynomolgus monkey VEGFR2

[12] = target: T8, rabbit VEGFR2 extracellular domain (rabbit, UniProt G1SN50 20-764); test: as above
T8 construct: extracellular domain

[13] = target: T9, dog VEGFR2 extracellular domain (dog, UniProt Q2XPT7 20-763); test: as above
T9 construct: extracellular domain

[14] = target: T1, human Ang2; test: competition ELISA: blocking of biotinylated human Ang2 binding to plate-coated human Tie2-Fc

T8 sequence (G1SN50 entry or part of it): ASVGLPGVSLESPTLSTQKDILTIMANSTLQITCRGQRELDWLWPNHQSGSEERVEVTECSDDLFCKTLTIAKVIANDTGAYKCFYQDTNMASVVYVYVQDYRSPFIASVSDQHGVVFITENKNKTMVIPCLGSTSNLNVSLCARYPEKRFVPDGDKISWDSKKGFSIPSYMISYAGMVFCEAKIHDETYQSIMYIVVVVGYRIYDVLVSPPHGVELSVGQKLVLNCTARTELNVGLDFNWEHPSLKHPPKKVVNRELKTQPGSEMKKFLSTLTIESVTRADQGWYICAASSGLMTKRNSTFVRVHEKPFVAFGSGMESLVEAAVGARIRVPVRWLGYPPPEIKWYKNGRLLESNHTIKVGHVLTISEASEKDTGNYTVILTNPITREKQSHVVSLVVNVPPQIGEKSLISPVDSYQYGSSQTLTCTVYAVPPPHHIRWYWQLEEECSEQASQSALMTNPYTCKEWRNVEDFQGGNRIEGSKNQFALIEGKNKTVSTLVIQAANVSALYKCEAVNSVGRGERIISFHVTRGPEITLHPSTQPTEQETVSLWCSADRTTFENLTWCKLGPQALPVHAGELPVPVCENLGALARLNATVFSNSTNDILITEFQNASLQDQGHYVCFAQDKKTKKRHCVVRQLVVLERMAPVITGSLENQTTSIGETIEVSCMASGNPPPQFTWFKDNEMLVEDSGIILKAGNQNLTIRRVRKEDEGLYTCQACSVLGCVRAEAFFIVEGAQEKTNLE
T6 sequence (P35968 20-764): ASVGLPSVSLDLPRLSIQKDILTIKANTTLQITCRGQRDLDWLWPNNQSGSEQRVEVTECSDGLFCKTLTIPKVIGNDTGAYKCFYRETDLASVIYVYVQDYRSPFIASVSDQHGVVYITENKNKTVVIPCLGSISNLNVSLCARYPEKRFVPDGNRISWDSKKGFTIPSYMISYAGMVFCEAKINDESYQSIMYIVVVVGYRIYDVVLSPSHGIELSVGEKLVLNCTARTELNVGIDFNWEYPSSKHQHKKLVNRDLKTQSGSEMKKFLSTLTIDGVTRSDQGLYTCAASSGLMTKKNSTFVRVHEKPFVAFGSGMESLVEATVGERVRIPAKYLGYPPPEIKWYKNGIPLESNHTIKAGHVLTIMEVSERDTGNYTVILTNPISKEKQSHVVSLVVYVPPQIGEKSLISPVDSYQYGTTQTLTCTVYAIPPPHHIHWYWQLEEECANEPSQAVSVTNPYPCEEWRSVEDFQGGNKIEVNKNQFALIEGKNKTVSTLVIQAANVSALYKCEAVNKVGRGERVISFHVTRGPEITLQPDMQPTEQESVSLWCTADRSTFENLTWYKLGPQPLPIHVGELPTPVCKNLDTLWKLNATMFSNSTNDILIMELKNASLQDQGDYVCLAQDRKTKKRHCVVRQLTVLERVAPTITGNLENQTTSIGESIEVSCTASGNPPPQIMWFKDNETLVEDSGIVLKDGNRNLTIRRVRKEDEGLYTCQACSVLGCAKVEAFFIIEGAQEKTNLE

B1: Compound F (bispecific antibody, human IgG4 S228P, kappa, F234A L235A)
heavy: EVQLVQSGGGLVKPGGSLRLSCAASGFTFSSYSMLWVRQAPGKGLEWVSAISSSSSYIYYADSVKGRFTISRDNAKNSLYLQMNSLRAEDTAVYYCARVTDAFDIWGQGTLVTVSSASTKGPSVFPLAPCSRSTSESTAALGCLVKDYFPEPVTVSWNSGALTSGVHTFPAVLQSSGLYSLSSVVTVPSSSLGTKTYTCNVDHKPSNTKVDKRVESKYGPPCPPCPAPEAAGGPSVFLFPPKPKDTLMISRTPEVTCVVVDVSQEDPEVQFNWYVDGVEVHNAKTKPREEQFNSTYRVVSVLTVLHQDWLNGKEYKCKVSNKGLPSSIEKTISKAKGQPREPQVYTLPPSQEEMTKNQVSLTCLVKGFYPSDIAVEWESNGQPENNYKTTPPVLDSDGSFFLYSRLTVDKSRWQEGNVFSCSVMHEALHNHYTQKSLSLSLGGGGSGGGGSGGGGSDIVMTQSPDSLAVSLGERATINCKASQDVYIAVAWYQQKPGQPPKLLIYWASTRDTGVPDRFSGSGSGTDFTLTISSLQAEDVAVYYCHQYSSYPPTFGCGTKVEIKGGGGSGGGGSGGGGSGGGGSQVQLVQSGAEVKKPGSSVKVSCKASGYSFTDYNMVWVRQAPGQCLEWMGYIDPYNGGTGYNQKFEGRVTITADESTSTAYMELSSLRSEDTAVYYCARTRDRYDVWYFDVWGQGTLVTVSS
light: DIQMTQSPSSVSASVGDRVTITCRASRGIDNWLTWYQQKPGKAPKLLIYEASSLQSGVPSRFSGSGSGTDFTLTISSLQPEDFATYYCQQAKAFPPTFGGGTKVDIKRTVAAPSVFIFPPSDEQLKSGTASVVCLLNNFYPREAKVQWKVDNALQSGNSQESVTEQDSKDSTYSLSSTLTLSKADYEKHKVYACEVTHQGLSSPVTKSFNRGEC
notes: also called Cmpd F
For B1, the “inhibition of human VEGF165-induced proliferation of HMVEC-d (IC50)” value [1] was 19.2 nM, the “inhibition of human VEGF-induced cord formation in ADSC/ECFC co-culture (IC50)” value [1] was 6.04 nM and the “inhibition of human Ang2 induced phospho-Tie2 in CHO-Tie2 cells (IC50)” value [2] was 0.587 nM. It also gave a Kd [3] of 0.23 nM, a koff [3] of 8e-05 s⁻¹ and a kon [3] of 360000 M⁻¹ s⁻¹. The Kd [4] was 0.42 nM, the koff [4] was 0.00011 s⁻¹ and the kon [4] was 270000 M⁻¹ s⁻¹. For the same binder, the Kd [5] was 0.24 nM, the koff [5] was 9e-05 s⁻¹ and the kon [5] was 360000 M⁻¹ s⁻¹. For the same binder, the Kd [6] was 0.1 nM, the koff [6] was 7e-05 s⁻¹ and the kon [6] was 820000 M⁻¹ s⁻¹. For the same binder, the Kd [7] was 0.3 nM, the koff [7] was 0.00028 s⁻¹ and the kon [7] was 960000 M⁻¹ s⁻¹. The Kd [8] was 0.673 nM, the koff [8] was 0.000105 s⁻¹ and the kon [8] was 156000 M⁻¹ s⁻¹. It also gave a Kd [9] of 0.721 nM, a koff [9] of 1.8e-05 s⁻¹ and a kon [9] of 25000 M⁻¹ s⁻¹. For the same binder, the Kd [10] was 4.6 nM, the koff [10] was 0.00012 s⁻¹ and the kon [10] was 25000 M⁻¹ s⁻¹. The Kd [11] was 3.3 nM, the koff [11] was 0.00011 s⁻¹ and the kon [11] was 34000 M⁻¹ s⁻¹. It also gave a Kd [12] of 6.1 nM, a koff [12] of 0.00023 s⁻¹ and a kon [12] of 38000 M⁻¹ s⁻¹. The Kd [13] was 37 nM, the koff [13] was 0.0015 s⁻¹ and the kon [13] was 41000 M⁻¹ s⁻¹. It also gave an IC50 [14] of 0.034 nM.

B2: Compound E (bispecific antibody, human IgG4 S228P, kappa, F234A L235A)
heavy: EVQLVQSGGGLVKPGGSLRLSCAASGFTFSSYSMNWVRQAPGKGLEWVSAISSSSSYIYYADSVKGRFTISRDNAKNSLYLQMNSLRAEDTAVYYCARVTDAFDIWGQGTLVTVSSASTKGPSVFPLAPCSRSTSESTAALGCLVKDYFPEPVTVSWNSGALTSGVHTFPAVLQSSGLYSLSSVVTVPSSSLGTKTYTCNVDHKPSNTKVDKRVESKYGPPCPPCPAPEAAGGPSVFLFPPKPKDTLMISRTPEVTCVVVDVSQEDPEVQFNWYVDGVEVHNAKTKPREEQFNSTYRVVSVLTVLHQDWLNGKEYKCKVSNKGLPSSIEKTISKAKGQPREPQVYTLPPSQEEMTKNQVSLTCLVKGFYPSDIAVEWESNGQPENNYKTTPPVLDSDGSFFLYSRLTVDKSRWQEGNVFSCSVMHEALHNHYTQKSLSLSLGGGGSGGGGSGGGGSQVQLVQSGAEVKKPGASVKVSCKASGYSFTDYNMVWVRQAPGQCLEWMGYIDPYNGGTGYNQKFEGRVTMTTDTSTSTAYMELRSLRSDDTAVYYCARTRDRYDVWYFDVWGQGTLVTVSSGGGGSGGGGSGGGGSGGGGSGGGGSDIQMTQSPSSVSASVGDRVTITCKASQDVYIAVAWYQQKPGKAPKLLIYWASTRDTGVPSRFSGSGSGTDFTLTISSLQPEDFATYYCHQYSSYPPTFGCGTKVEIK
light: DIQMTQSPSSVSASVGDRVTITCRASQGIDNWLTWYQQKPGKAPKLLIVEASSLQSGVPSRFSGSGSGTDFTLTISSLQPEDFATYYCQQAKAFPPTFGGGTKVDIKRTVAAPSVFIFPPSDEQLKSGTASVVCLLNNFYPREAKVQWKVDNALQSGNSQESVTEQDSKDSTYSLSSTLTLSKADYEKHKVYACEVTHQGLSSPVTKSFNRGEC
For B2, the Kd [8] was 0.407 nM, the koff [8] was 9.7e-05 s⁻¹ and the kon [8] was 239000 M⁻¹ s⁻¹. For the same binder, the Kd [9] was 1.11 nM, the koff [9] was 3.5e-05 s⁻¹ and the kon [9] was 32000 M⁻¹ s⁻¹.

B3: Compound C (bispecific antibody, human IgG4 S228P, kappa, F234A L235A)
heavy: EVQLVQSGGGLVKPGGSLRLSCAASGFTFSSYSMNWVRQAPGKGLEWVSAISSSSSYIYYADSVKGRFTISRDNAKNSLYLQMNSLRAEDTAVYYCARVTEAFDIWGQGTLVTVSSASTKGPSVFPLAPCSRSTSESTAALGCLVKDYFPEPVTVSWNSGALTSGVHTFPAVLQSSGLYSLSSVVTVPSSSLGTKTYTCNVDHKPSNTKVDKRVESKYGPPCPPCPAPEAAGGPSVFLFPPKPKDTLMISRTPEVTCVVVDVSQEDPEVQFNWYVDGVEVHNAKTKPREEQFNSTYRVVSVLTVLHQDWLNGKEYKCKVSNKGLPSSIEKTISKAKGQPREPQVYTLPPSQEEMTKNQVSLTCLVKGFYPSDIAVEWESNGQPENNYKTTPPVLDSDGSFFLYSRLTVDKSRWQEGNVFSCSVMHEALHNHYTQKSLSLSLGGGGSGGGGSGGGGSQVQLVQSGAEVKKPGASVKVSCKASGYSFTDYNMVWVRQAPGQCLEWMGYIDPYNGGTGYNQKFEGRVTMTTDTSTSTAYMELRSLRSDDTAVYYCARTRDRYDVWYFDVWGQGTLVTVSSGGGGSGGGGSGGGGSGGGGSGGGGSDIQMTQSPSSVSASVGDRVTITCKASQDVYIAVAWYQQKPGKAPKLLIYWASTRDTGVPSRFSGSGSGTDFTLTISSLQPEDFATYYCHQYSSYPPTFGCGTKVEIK
light: DIQMTQSPSSVSASVGDRVTITCRASRGIDNWLTWYQQKPGKAPKLLIYEASSLQSGVPSRFSGSGSGTDFTLTISSLQPEDFATYYCQQAKAFPPTFGGGTKVDIKRTVAAPSVFIFPPSDEQLKSGTASVVCLLNNFYPREAKVQWKVDNALQSGNSQESVTEQDSKDSTYSLSSTLTLSKADYEKHKVYACEVTHQGLSSPVTKSFNRGEC
In the case of B3, the Kd [8] is reported as 0.462 nM, the koff [8] is reported as 0.000105 s⁻¹ and the kon [8] is reported as 226000 M⁻¹ s⁻¹. The Kd [9] was 0.528 nM, the koff [9] was 2e-05 s⁻¹ and the kon [9] was 38000 M⁻¹ s⁻¹.

B4: Compound D (bispecific antibody, human IgG4 S228P, kappa, F234A L235A)
heavy: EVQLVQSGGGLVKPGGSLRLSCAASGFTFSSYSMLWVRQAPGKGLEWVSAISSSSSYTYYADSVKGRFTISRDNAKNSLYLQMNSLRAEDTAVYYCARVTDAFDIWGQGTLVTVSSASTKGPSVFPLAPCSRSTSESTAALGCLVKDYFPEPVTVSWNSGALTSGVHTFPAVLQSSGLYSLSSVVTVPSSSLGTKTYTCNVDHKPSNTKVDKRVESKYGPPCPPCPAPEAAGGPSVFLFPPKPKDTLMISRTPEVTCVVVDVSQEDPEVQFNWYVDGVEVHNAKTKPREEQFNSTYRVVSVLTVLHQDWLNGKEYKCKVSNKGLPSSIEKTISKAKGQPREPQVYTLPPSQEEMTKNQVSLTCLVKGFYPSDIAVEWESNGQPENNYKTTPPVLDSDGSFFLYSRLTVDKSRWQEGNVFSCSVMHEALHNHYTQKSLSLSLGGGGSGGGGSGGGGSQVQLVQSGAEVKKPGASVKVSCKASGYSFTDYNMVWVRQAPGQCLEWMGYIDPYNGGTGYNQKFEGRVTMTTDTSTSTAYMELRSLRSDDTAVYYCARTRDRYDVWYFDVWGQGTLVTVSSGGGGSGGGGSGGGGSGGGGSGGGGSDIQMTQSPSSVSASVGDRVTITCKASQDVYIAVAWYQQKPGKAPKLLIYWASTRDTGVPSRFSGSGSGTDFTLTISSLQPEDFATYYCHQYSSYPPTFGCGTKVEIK
light: DIQMTQSPSSVSASVGDRVTITCRASQGIDNWLTWYQQKPGKAPKLLIVEASSLQSGVPSRFSGSGSGTDFTLTISSLQPEDFATYYCQQAKRFPPTFGGGTKVDIKRTVAAPSVFIFPPSDEQLKSGTASVVCLLNNFYPREAKVQWKVDNALQSGNSQESVTEQDSKDSTYSLSSTLTLSKADYEKHKVYACEVTHQGLSSPVTKSFNRGEC
Binder B4 has a Kd [8] of 0.489 nM, a koff [8] of 8.6e-05 s⁻¹ and a kon [8] of 175000 M⁻¹ s⁻¹. It also gave a Kd [9] of 0.86 nM, a koff [9] of 2.9e-05 s⁻¹ and a kon [9] of 34000 M⁻¹ s⁻¹.

B5: Compound A (bispecific antibody, human IgG1, kappa)
heavy: not shown
light: DIQMTQSPSSVSASIGDRVTITCRASQGIDNWLGWYQQKPGKAPKLLIYDASNLDTGVPSRFSGSGSGTYFTLTISSLQAEDFAVYFCQQAKAFPPTFGGGTKVDIKRTVAAPSVFIFPPSDEQLKSGTASVVCLLNNFYPREAKVQWKVDNALQSGNSQESVTEQDSKDSTYSLSSTLTLSKADYEKHKVYACEVTHQGLSSPVTKSFNRGEC
B5 was tested, and the Kd [8] was < 0.1 nM, the koff [8] was < 1e-05 s⁻¹ and the kon [8] was 183000 M⁻¹ s⁻¹. The Kd [9] was 0.711 nM, the koff [9] was 4.8e-05 s⁻¹ and the kon [9] was 68000 M⁻¹ s⁻¹.

B6: Compound B (bispecific antibody, human IgG4 S228P, kappa, F234A L235A)
heavy: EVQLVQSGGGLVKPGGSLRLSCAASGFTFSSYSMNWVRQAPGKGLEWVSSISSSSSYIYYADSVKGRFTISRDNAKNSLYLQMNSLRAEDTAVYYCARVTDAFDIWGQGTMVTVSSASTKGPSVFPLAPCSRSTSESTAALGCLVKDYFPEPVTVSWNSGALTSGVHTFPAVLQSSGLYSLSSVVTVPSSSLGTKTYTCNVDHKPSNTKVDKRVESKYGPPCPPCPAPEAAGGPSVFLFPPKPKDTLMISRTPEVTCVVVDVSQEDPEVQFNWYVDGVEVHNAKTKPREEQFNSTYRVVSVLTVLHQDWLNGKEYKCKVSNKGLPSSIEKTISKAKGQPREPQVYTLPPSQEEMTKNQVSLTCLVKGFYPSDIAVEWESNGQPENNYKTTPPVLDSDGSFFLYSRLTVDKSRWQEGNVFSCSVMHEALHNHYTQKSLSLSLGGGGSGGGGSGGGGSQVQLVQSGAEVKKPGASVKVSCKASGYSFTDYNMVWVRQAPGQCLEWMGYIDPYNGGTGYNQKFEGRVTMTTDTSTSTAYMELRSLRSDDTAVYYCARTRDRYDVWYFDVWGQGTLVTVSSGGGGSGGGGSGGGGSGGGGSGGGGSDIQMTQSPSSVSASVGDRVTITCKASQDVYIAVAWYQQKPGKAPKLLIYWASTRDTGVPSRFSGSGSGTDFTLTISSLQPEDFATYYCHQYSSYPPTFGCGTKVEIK
light: DIQMTQSPSSVSASIGDRVTITCRASQGIDNWLGWYQQKPGKAPKLLIYDASNLDTGVPSRFSGSGSGTYFTLTISSLQAEDFAVYFCQQAKAFPPTFGGGTKVDIKRTVAAPSVFIFPPSDEQLKSGTASVVCLLNNFYPREAKVQWKVDNALQSGNSQESVTEQDSKDSTYSLSSTLTLSKADYEKHKVYACEVTHQGLSSPVTKSFNRGEC
B6 was tested, and the Kd [8] was < 0.1 nM, the koff [8] was < 1e-05 s⁻¹ and the kon [8] was 285000 M⁻¹ s⁻¹. The Kd [9] was 0.513 nM, the koff [9] was 4.1e-05 s⁻¹ and the kon [9] was 81000 M⁻¹ s⁻¹.
